Data: publication PMC10353453 (Molecular cell, 2022)
Positions count from the first letter of the chain named. Names and notes keep the numbering of the source.

B1: human NADK2 (aa 61–442 with an N terminus His-tag) (enzyme, UniProt Q4G0N4 61-442, looked up)
chain: RADGGFRPSRVVVVAKTTRYEFEQQRYRYAELSEEDLKQLLALKGSSYSGLLERHHIHTKNVEHIIDSLRNEGIEVRLVKRREYDEETVRWADAVIAAGGDGTMLLAASKVLDRLKPVIGVNTDPERSEGHLCLPVRYTHSFPEALQKFYRGEFRWLWRQRIRLYLEGTGINPVPVDLHEQQLSLNQHNRALNIERAHDERSEASGPQLLPVRALNEVFIGESLSSRASYYEISVDDGPWEKQKSSGLNLCTGTGSKAWSFNINRVATQAVEDVLNIAKRQGNLSLPLNRELVEKVTNEYNESLLYSPEEPKILFSIREPIANRVFSSSRQRCFSSKVCVRSRCWDACMVVDGGTSFEFNDGAIASMMINKEDELRTVLLEQ
B2: His-NADK2^Δ78–114 (aa 61–442) (enzyme, human, UniProt Q4G0N4 61-442, looked up)
chain: RADGGFRPSRVVVVAKTHHIHTKNVEHIIDSLRNEGIEVRLVKRREYDEETVRWADAVIAAGGDGTMLLAASKVLDRLKPVIGVNTDPERSEGHLCLPVRYTHSFPEALQKFYRGEFRWLWRQRIRLYLEGTGINPVPVDLHEQQLSLNQHNRALNIERAHDERSEASGPQLLPVRALNEVFIGESLSSRASYYEISVDDGPWEKQKSSGLNLCTGTGSKAWSFNINRVATQAVEDVLNIAKRQGNLSLPLNRELVEKVTNEYNESLLYSPEEPKILFSIREPIANRVFSSSRQRCFSSKVCVRSRCWDACMVVDGGTSFEFNDGAIASMMINKEDELRTVLLEQ
B3: His-NADK2^V334R (enzyme, human, UniProt Q4G0N4 61-442, looked up)
chain: B1 chain with V274R
B4: His-NADK2^R378Q (enzyme, human, UniProt Q4G0N4 61-442, looked up)
chain: B1 chain with R318Q
B5: His-NADK2^K76Q (enzyme, human, UniProt Q4G0N4 61-442, looked up)
chain: B1 chain with K16Q
B6: His-NADK2^S188A (enzyme, human, UniProt Q4G0N4 61-442, looked up)
chain: B1 chain with S128A
B7: His-NADK2^K304Q (enzyme, human, UniProt Q4G0N4 61-442, looked up)
chain: B1 chain with K244Q
B8: His-NADK2^Δ231–266 (aa 61–442) (enzyme, human, UniProt Q4G0N4 61-442, looked up)
chain: RADGGFRPSRVVVVAKTTRYEFEQQRYRYAELSEEDLKQLLALKGSSYSGLLERHHIHTKNVEHIIDSLRNEGIEVRLVKRREYDEETVRWADAVIAAGGDGTMLLAASKVLDRLKPVIGVNTDPERSEGHLCLPVRYTHSFPEALQKFYRGEFRWLWRQRIRLYLEGTGPQLLPVRALNEVFIGESLSSRASYYEISVDDGPWEKQKSSGLNLCTGTGSKAWSFNINRVATQAVEDVLNIAKRQGNLSLPLNRELVEKVTNEYNESLLYSPEEPKILFSIREPIANRVFSSSRQRCFSSKVCVRSRCWDACMVVDGGTSFEFNDGAIASMMINKEDELRTVLLEQ
B9: NADK2 expressed in HEK293E cells (full-length human NADK2 cDNA with a C-terminal FLAG-tag) (enzyme, UniProt Q4G0N4 63-442, looked up)
chain: DGGFRPSRVVVVAKTTRYEFEQQRYRYAELSEEDLKQLLALKGSSYSGLLERHHIHTKNVEHIIDSLRNEGIEVRLVKRREYDEETVRWADAVIAAGGDGTMLLAASKVLDRLKPVIGVNTDPERSEGHLCLPVRYTHSFPEALQKFYRGEFRWLWRQRIRLYLEGTGINPVPVDLHEQQLSLNQHNRALNIERAHDERSEASGPQLLPVRALNEVFIGESLSSRASYYEISVDDGPWEKQKSSGLNLCTGTGSKAWSFNINRVATQAVEDVLNIAKRQGNLSLPLNRELVEKVTNEYNESLLYSPEEPKILFSIREPIANRVFSSSRQRCFSSKVCVRSRCWDACMVVDGGTSFEFNDGAIASMMINKEDELRTVLLEQ

Target: the molecule itself
Test: SAXS

Stoichiometry N, 2:
B1

Target: the molecule itself
Test: mass photometry

Stoichiometry N, 2:
B2, B3, B4, B5, B6, B7, B8

Target: the molecule itself
Test: cross-linking

Stoichiometry N, 2:
B9
